In data set [1] the target is human complement C5 in serum (Homo sapiens) (UniProt P01031+P01031). Kind of data set: cell_activity. The note with it: 2'-F pyrimidines and 2'-OMe purines as printed, CGCU unmodified; complement-dependent sheep erythrocyte hemolysis.
The target in data set [2] is T1, human C5a (L-form) (Homo sapiens) (UniProt P01031).
T1 sequence: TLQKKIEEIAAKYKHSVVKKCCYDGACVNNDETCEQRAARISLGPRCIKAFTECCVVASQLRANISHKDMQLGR
Kind of data set: SPR. The note with it: L-RNA [all (L-RNA)]; 37 C, Mg, Ca.

pIC50, pKd: −log10 of the molar value.

Chain of human complement C5 in serum (Homo sapiens) (P01031 19-673 T389I, one chain of several): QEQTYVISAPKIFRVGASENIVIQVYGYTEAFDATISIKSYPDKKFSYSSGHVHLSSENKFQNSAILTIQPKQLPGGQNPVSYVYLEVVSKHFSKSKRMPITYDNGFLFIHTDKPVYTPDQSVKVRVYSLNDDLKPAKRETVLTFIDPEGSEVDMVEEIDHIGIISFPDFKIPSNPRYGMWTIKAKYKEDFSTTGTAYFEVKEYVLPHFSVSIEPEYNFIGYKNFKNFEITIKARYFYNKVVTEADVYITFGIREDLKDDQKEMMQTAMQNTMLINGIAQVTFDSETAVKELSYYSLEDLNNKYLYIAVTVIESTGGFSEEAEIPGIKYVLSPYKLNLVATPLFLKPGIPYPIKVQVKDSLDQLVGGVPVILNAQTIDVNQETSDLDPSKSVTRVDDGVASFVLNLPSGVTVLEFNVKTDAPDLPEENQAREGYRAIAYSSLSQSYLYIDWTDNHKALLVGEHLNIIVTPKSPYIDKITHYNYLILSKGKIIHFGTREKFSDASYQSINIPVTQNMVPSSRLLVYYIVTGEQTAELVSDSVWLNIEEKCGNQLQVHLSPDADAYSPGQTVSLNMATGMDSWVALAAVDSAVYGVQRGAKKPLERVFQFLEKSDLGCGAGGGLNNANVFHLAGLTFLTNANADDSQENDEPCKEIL

As a reminder, the pIC50 is the IC50 on a negative log10 scale, so that one unit is a factor of ten. The substance C5C6 aptamer showed a negative logarithm of the IC50 (pIC50) in data set [1] of 6.00.

Usually pKd stands for the negative decadic logarithm of the Kd, by convention in mol/L. The low end stands for a large Kd, the high end for a small Kd. For “UGCUGGACAGGACCAAGGUAAGGGCGGACCGAAAAACCUAGCAGCA [182-A5-002]”, the pKd in data set [2] was 9.52.
